Data from US20230416363A1 (KADMON, published 2023).
Changes are numbered by the printed parent chain.

T1: mPD1 (soluble, ELISA of Examples 20 and 24) (mouse, UniProt Q02242 25-167, limits assumed)
T1 construct: also called Biotin-mPD1
T1 sequence (looked up): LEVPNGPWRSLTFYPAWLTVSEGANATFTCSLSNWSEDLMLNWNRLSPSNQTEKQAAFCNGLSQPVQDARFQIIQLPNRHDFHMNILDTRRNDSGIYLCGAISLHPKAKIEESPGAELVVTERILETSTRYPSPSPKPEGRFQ

T2: mPD-1-Fc (mouse; human, UniProt Q02242 25-167, limits assumed)
T2 construct: domain: IgV domain; not shown: human IgG1 Fc
T2 sequence (looked up): T1 sequence (looked up)

T3: mPD-1-his (mouse, UniProt Q02242 25-167, limits assumed)
T3 construct: domain: IgV domain
T3 sequence: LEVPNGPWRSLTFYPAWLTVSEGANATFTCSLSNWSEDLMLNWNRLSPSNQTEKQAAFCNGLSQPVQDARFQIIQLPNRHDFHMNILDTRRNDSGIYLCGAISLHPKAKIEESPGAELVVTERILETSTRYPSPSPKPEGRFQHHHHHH

T4: mouse PD-1 expressed on cells (mouse, UniProt Q02242 25-288)
T4 sequence (looked up): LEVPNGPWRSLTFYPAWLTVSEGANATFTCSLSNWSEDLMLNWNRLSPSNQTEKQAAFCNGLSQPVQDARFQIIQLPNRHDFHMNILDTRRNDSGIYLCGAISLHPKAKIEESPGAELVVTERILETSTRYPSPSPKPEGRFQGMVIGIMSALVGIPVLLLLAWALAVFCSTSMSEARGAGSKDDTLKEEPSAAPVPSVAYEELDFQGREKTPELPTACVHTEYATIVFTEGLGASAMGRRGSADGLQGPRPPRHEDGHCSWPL

B1: 2C-m3A7/IL-15 (other)
light: DIQMTQSPSSLSASVGDRVTITCRASRSISNWLAWYQQKPGKAPKLLIYAASSLQSGVPSRFSGSGSGTDFTLTISSLQPEDFATYYCQQSYSAPVTFGQGTKVEIKRADAAPTVSIFPPSSEQLTSGGASVVCFLNNFYPKDINVKWKIDGSERQNGVLNSWTDQDSKDSTYSMSSTLTLTKDEYERHNSYTCEATHKTSTSPIVKSFNRNEC
heavy: QVQLVQSGAEVKKPGASVKVSCKASGHTFTSYYIHWVRQAPGQGLEWMGIINPSGGSTSYAQKFQGRVTMTRDTSTSTVYMELSSLRSEDTAVYYCARDRAYGGAGDYWGQGTLVTVSSAKTTAPSVYPLAPVCGDTTGSSVTLGCLVKGYFPEPVTLTWNSGSLSSGVHTFPAVLQSDLYTLSSSVTVTSSTWPSQSITCNVAHPASSTKVDKKIEPRGPTIKPCPPCKCPAPNAAGGPSVFIFPPKIKDVLMISLSPIVTCVVVDVSEDDPDVQISWFVNNVEVHTAQTQTHREDYNSTLRVVSALPIQHQDWMSGKEFKCKVNNKDLGAPIERTISKPKGSVRAPQVYVLPPPEEEMTKKQVTLTCMVTDFMPEDIYVEWTNNGKTELNYKNTEPVLDSDGSYFMYSKLRVEKKNWVERNSYSCSVVHEGLHNHHTTKSFSRTPGSCPPPVSIEHADIRVKNYSVNSRERYVCNSGFKRKAGTSTLIECVINKNTNVAHWTTPSLKCIRDPALVHQRPAPPSGGSGGGGSGGGSGGGGSLQNWIDVRYDLEKIESLIQSIHIDTTLYTDSDFHPSCKVTAMNCFLLELQVILHEYSNMTLNETVRNVLYLANSTLSSNKNVAESGCKECEELEEKTFTEFLQSFIRIVQMFINTS
notes: antibody-cytokine fusion
B2: 2N-m3A7/IL-15 (other)
light: B1 light
heavy: ITCPPPVSIEHADIRVKNYSVNSRERYVCNSGFKRKAGTSTLIECVINKNTNVAHWTTPSLKCIRDPALVHQRPAPPSGGSGGGGSGGGSGGGGSLQNWIDVRYDLEKIESLIQSIHIDTTLYTDSDFHPSCKVTAMNCFLLELQVILHEYSNMTLNETVRNVLYLANSTLSSNKNVAESGCKECEELEEKTFTEFLQSFIRIVQMFINTSGGGGSGGGGSGGGGSGGGGSGGGGSGGGGSQVQLVQSGAEVKKPGASVKVSCKASGHTFTSYYIHWVRQAPGQGLEWMGIINPSGGSTSYAQKFQGRVTMTRDTSTSTVYMELSSLRSEDTAVYYCARDRAYGGAGDYWGQGTLVTVSSAKTTAPSVYPLAPVCGDTTGSSVTLGCLVKGYFPEPVTLTWNSGSLSSGVHTFPAVLQSDLYTLSSSVTVTSSTWPSQSITCNVAHPASSTKVDKKIEPRGPTIKPCPPCKCPAPNAAGGPSVFIFPPKIKDVLMISLSPIVTCVVVDVSEDDPDVQISWFVNNVEVHTAQTQTHREDYNSTLRVVSALPIQHQDWMSGKEFKCKVNNKDLGAPIERTISKPKGSVRAPQVYVLPPPEEEMTKKQVTLTCMVTDFMPEDIYVEWTNNGKTELNYKNTEPVLDSDGSYFMYSKLRVEKKNWVERNSYSCSVVHEGLHNHHTTKSFSRTPGK
notes: antibody-cytokine fusion
B3: 1N-m3A7/IL-15 (other)
light: B1 light
heavy 1: QVQLVQSGAEVKKPGASVKVSCKASGHTFTSYYIHWVRQAPGQGLEWMGIINPSGGSTSYAQKFQGRVTMTRDTSTSTVYMELSSLRSEDTAVYYCARDRAYGGAGDYWGQGTLVTVSSAKTTAPSVYPLAPVCGDTTGSSVTLGCLVKGYFPEPVTLTWNSGSLSSGVHTFPAVLQSDLYTLSSSVTVTSSTWPSQSITCNVAHPASSTKVDKKIEPRGPTIKPCPPCKCPAPNAAGGPSVFIFPPKIKDVLMISLSPIVTCVVVDVSEDDPDVQISWFVNNVEVHTAQTQTHREDYNSTLRVVSALPIQHQDWMSGKEFKCKVNNKDLGAPIERTISKPKGSVRAPQVYVYPPPEEEMTKKQVTLTCMVTDFMPEDIYVEWTNNGKTELNYKNTEPVLDSDGSYAMVSKLRVEKKNWVERNSYSCSVVHEGLHNHHTTKSFSRTPGK
heavy 2: B2 heavy with T609L, K635L, T637W
notes: antibody-cytokine fusion
B4: 1C-m3A7/IL-15 (other)
light: B1 light
heavy 1: B3 heavy 1
heavy 2: B1 heavy with T368L, K394L, T396W
notes: antibody-cytokine fusion
B5: m2C1 (antibody, V domains shown)
VH: QVQLVQSGAEVKKPGASVKVSCKASGHTFTSYYIHWVRQAPGQGLEWMGIINPSGGSTSYAQKFQGRVTMTRDTSTSTVYMELSSLRSEDTAVYYCARDRAYGGAGDYWGQGTLVTVSS
VL: DIQMTQSPSSLSASVGDRVTITCRASRSISSWLAWYQQKPGKAPKLLIYAASSLQSGVPSRFSGSGSGTDFTLTISSLQPEDFATYYCQQSYSIPATFGQGTKVEIK
notes: R3A9 derivative; also called m3CM (apparent misprint)

How the values were obtained:
[1] = target: T1, mPD1 (soluble, ELISA of Examples 20 and …); experiment: competition ELISA, blocking of mPD-L1 binding to mPD-1
[2] = target: T2, mPD-1-Fc; experiment: kinetics, mPD-1-Fc (off rate outside the machine limit)
[3] = target: T3, mPD-1-his; experiment: kinetics (Ka/Kd/KD; method not named), mPD-1-his
[4] = target: T4, mouse PD-1 expressed on cells; experiment: cell-based or functional assay
[5] = target: T4, mouse PD-1 expressed on cells; experiment: flow cytometry on mPD-1-HEK293 cells
[6] = target: T1, mPD1 (soluble, ELISA of Examples 20 and …); experiment: ELISA, dose-response binding to mPD-1
[7] = target: T5, hPD1 (soluble, ELISA of Example 20) (human, UniProt Q15116 25-167, limits assumed); experiment: blocking ELISA, hPD1 to hPDL1
T5 sequence (Q15116 25-167 limits assumed): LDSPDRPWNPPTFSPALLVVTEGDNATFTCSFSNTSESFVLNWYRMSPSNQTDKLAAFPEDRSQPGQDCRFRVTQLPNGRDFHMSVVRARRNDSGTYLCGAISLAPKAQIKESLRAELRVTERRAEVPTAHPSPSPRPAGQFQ

[8] = target: T4, mouse PD-1 expressed on cells; experiment: flow cytometry, mPD1-293 cells
[9] = target: T6, human PD-1 expressed on cells (human, UniProt Q15116 25-288); experiment: cell-based or functional assay
T6 sequence (Q15116 25-288): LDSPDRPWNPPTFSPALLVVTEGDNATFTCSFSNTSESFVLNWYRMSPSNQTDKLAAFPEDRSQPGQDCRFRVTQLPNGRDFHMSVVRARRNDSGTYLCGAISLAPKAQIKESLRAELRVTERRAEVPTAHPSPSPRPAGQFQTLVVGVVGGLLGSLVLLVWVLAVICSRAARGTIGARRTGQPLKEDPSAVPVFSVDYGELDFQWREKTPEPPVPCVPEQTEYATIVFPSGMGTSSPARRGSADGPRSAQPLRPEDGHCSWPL

[10] = target: T4, mouse PD-1 expressed on cells; experiment: cell-based or functional assay; remark: listed apart in the source
[11] = target: T3, mPD-1-his; experiment: SPR Biacore, mPD1-his
[12] = target: T1, mPD1 (soluble, ELISA of Examples 20 and …); experiment: ELISA, biotin-mPD1 on streptavidin
[13] = target: T6, human PD-1 expressed on cells; experiment: flow cytometry, hPD1-293 cells
[14] = target: T2, mPD-1-Fc; experiment: SPR Biacore, mPD1-Fc
[15] = target: T4, mouse PD-1 expressed on cells; experiment: flow cytometry, mPD1-eff cells
[16] = target: T1, mPD1 (soluble, ELISA of Examples 20 and …); experiment: ELISA, mPD1
[17] = target: T1, mPD1 (soluble, ELISA of Examples 20 and …); experiment: blocking ELISA, mPD1 to mPDL1
[18] = target: T7, hPD-1-Fc (human, UniProt Q15116 25-167); experiment: SPR Biacore, hPD1-Fc
T7 construct: domain: IgV domain; also called human PD-1-Fc; not shown: human IgG1 Fc
T7 sequence (Q15116 25-167 limits assumed): as the sequence (Q15116 25-167 limits assumed) above

[19] = target: T5, hPD1 (soluble, ELISA of Example 20); experiment: ELISA, hPD1

Binder | IC50 (read off the curve) [1] | Kd [2] | Kd [3] | EC50 (read off the curve) [4] | EC50 (read off the curve) [5] | EC50 (read off the curve) [6] | other results
B1 | ~0.2 nM | 0.0593 nM | 0.247 nM | ~0.7 nM | ~1 nM | ~0.2 nM | –
B2 | ~0.3 nM | 0.00909 nM | 0.283 nM | ~2 nM | ~1 nM | ~0.3 nM | –
B3 | ~0.3 nM | 0.0878 nM | 0.457 nM | ~0.8 nM | ~0.8 nM | ~0.2 nM | –
B4 | ~0.3 nM | 0.0927 nM | 0.296 nM | ~0.6 nM | ~0.7 nM | ~0.1 nM | –
B5 | – | – | – | – | – | – | IC50 [7]: 5.71 nM; EC50 [8]: 0.411 nM; IC50, Promega blockade bioassay [9]: 31.2 nM; IC50, Promega blockade bioassay [10]: 1.13 nM; Kd [11]: 3.22 nM; koff [11]: 0.000693 s⁻¹; kon [11]: 215000 M⁻¹ s⁻¹; EC50 [12]: 0.291 nM; EC50 [13]: 1.26 nM; Kd [14]: 2.91 nM; koff [14]: 0.000583 s⁻¹; kon [14]: 200000 M⁻¹ s⁻¹; EC50 [15]: 0.373 nM; EC50 [16]: 0.572 nM; IC50 [17]: 0.464 nM; Kd [18]: 2.81 nM; koff [18]: 0.000355 s⁻¹; kon [18]: 126000 M⁻¹ s⁻¹; EC50 [19]: 0.149 nM
